Drawing on PMC3648548, this text covers stoichiometry N for one substance.

For the assay, the target named is GLIC NQN mutant (D91N, E177Q, D178N), pentameric ligand-gated ion channel from Gloeobacter violaceus (Gloeobacter violaceus). Description: crystal structure; GLIC-NQN mutant in 0.01% (w/v) n-tetradecyl-β-D-maltoside, ~10 mg/ml; crystallization conditions as for GLIC and GLIC-ketamine; molecular replacement with 4F8H; five subunits in the asymmetric unit.

For the substance “GLIC NQN mutant (D91N, E177Q, D178N), pentameric ligand-gated ion channel from Gloeobacter violaceus (natural protein)”, the stoichiometry N (usually the number of molecules, sites or subunits per partner or assembly) turned out to be 5.
